In US20120100139A1 (APTEVO RESEARCH AND DEVELOPMENT, published 2012):

T1: Murine CD86-mIgG (R&D Systems, Inc) (murine, UniProt P42082 24-244, limits assumed)
T1 construct: also called muCD86
T1 sequence (looked up): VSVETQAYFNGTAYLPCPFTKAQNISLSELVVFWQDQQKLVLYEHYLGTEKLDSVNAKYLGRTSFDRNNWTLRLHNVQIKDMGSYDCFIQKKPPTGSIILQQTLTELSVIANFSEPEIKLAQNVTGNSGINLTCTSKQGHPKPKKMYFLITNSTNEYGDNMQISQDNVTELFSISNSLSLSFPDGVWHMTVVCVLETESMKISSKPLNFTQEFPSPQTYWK

T2: CD86-mIgG (Ancell, Inc) (UniProt P42081 24-247, limits assumed)
T2 construct: Bought reagent
T2 sequence (looked up): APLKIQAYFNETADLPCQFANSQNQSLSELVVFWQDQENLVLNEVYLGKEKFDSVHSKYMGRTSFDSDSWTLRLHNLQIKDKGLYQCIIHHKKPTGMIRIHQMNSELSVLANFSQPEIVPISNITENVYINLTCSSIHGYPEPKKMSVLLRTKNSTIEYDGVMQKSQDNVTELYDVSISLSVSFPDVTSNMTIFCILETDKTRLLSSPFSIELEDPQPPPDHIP


Assays:
[1] = target: T1, Murine CD86-mIgG (R&D Systems, Inc); assay: SPR (BIAcore T100), murine CD86-mIgG immobilized on CM5; steady-state equilibrium fit
Description: (§1) SPR measurements were performed on a BIAcore™ T100 SPR (Pharmacia Biotech AB, Uppsala) using HBS-EP+ (GE Healthcare) as a running buffer. Murine CD86-mIgG (25 μg/mL in 10 mM sodium acetate, pH 4.0, R&D Systems, Inc) was directly immobilized onto a CM5 chip using standard amine coupling chemistry (Biacore Amine Coupling Kit, GE Healthcare), with final immobilization levels of 150, 493, and 746 Ru. CTLA4-containing constructs were injected for 150 seconds, at a flow rate of 10 μl/min, in a series of concentrations from 4 nM to 8 μM. Dissociation was monitored for 600 seconds (CTLA4 constructs) or 1200 seconds (GL1 constructs), and the surface was regenerated by injecting 10 mM glycine, pH 1.7, for 60 seconds. […] Data were analyzed using BiaEvaluation for the T100 software (version 2.0.1, GE Healthcare).

[2] = target: T1, Murine CD86-mIgG (R&D Systems, Inc); assay: SPR (BIAcore T100), murine CD86-mIgG immobilized on CM5; bivalent analyte model, first site
Description: as §1

[3] = target: T1, Murine CD86-mIgG (R&D Systems, Inc); assay: SPR (BIAcore T100), murine CD86-mIgG immobilized on CM5; bivalent analyte model, second site
Description: as §1

CD86-mIgG (Ancell, Inc) [4] = target: T2, CD86-mIgG (Ancell, Inc); assay: SPR (BIAcore T100), CD86-mIgG immobilized on CM5; first site
Description: (§2) SPR measurements were performed on a BIAcore™ T100 SPR (Pharmacia Biotech AB, Uppsala) using HBS-EP+ (GE Healthcare) as a running buffer. […] CTLA4-containing constructs were injected for 150 seconds, at a flow rate of 10 μl/min, in a series of concentrations from 4 nM to 10 μM. Dissociation was monitored for 600 seconds, and the surface was either regenerated by injecting 50 mM sodium citrate, 500 mM sodium chloride, pH 5.0, for 60 seconds (wild type CTLA4) or 10 mM glycine, pH 1.7 (L104E A29Y CTLA4). […] Data were analyzed using BiaEvaluation for the T100 software (version 2.0.1, GE Healthcare).
(§3) SPR measurements were performed as listed above, with the following exceptions: HBS-P+ (GE Healthcare) was used as a running buffer; dissociation was monitored for 1200 seconds; and the surface was regenerated by injecting 10 mM glycine, pH 1.7, for 60 seconds.

CD86-mIgG (Ancell, Inc) [5] = target: T2, CD86-mIgG (Ancell, Inc); assay: SPR (BIAcore T100), CD86-mIgG immobilized on CM5; second site
Description: as §2, §3

CD86-mIgG (Ancell, Inc) [6] = target: T2, CD86-mIgG (Ancell, Inc); assay: SPR (BIAcore T100), CD86-mIgG immobilized on CM5; steady-state equilibrium fit
Description: as §2, §3

Row | Binder | Kd [1] [nM] | koff [2] [s⁻¹] | kon [2] [M⁻¹ s⁻¹] | Second Site ka [3] [s⁻¹] | Second Site kd [3] [s⁻¹] | koff (CD86-mIgG (Ancell, Inc) [4]) [s⁻¹] | kon (CD86-mIgG (Ancell, Inc) [4]) [M⁻¹ s⁻¹] | Second Site ka (CD86-mIgG (Ancell, Inc) [5]) [s⁻¹] | Second Site kd (CD86-mIgG (Ancell, Inc) [5]) [s⁻¹] | Kd (CD86-mIgG (Ancell, Inc) [6]) [nM]
1 | GL1::IL10 xceptor (Fc fusion) EVQLVESAGGLVQPGRSLKLSCAASGFTFSDYYMAWVRQAPTKGLEWVATISHDGSSTYYRDSVKGRFTISRDNAKTILYLQMDSLRSEDTATYFCARQNIMDYWGQGVMVTVSSGGGGSGGGGSGGGGSGGGGSDIVMTQTPSSQAVSAGEKVTMSCKSSQSLLYSRDQSNYLAWYQQKPGQSPKLLIYLASTRESGVPDRFIGSGSGTDFTLTISSVQAEDLADYYCQQHYNYPLTFGSGTKLEIKLEPKSSDKTHTCPPCPAPEAAGAPSVFLFPPKPKDTLMISRTPEVTCVVVDVSHEDPEVKFNWYVDGVEVHNAKTKPREEQYNSTYRVVSVLTVLHQDWLNGKAYACAVSNKALPAPIEKTISKAKGQPREPQVYTLPPSRDELTKNQVSLTCLVKGFYPSDIAVEWESNGQPENNYKTTPPVLDSDGSFFLYSKLTVDKSRWQQGNVFSCSVMHEALHNHYTQKSLSLSPGNSLFNQEVQIPLTESYSPNSSPGQGTQSENSCTHFPGNLPNMLRDLRDAFSRVKTFFQMKDQLDNLLLKESLLEDFKGYLGCQALSEMIQFYLEEVMPQAENQDPDIKAHVNSLGENLKTLRLRLRRCHRFLPCENKSKAVEQVKNAFNKLQEKGIYKAMSEFDIFINYIEAYMTMKIRN | 86.4 | 0.00019 | 219000 | 0.00943 | 0.0182 | – | – | – | – | –
2 | IL10::FUN1-21 xceptor (Fc fusion) SPGQGTQSENSCTHFPGNLPNMLRDLRDAFSRVKTFFQMKDQLDNLLLKESLLEDFKGYLGCQALSEMIQFYLEEVMPQAENQDPDIKAHVNSLGENLKTLRLRLRRCHRFLPCENKSKAVEQVKNAFNKLQEKGIYKAMSEFDIFINYIEAYITMKIRNLEPKSSDKTHTCPPCPAPEAAGAPSVFLFPPKPKDTLMISRTPEVTCVVVDVSHEDPEVKFNWYVDGVEVHNAKTKPREEQYNSTYRVVSVLTVLHQDWLNGKAYACAVSNKALPAPIEKTISKAKGQPREPQVYTLPPSRDELTKNQVSLTCLVKGFYPSDIAVEWESNGQPENNYKTTPPVLDSDGSFFLYSKLTVDKSRWQQGNVFSCSVMHEALHNHYTQKSLSLSPGNSLFNQEVQIPLTESYSPNSQVQLVQSGAEVKKPGASVKVSCKASGYTFTDYNMNWVRQAPGQGLEWMGNIDPYYGGTSYNQKFKGRVTMTRDTSISTAYMELSRLRSDDTAVYYCARWDYRYDDGRAYYVMDFWGQGTTVTVSSGGGGSGGGGSGGGGSGGGGSDIVMTQSPDSLAVSLGERATINCKSSQSVLYSSNQKNYLAWYQQKPGQPPKLLIYWASTRESGVPDRFSGSGSGTDFTLTISSLQAEDVAVYYCHQYLYSWTFGQGTKLEIKR | – | – | – | – | – | 0.000128 | 158000 | 0.0064 | 0.0387 | 98.6
3 | GL1 mAb (parent rat anti-murine CD86 monoclonal antibody) (antibody, V domains shown, also called GL1 antibody) VH: EVQLVESAGGLVQPGRSLKLSCAASGFTFSDYYMAWVRQAPTKGLEWVATISHDGSSTYYRDSVKGRFTISRDNAKTILYLQMDSLRSEDTATYFCARQNIMDYWGQGVMVTVSS VL: DIVMTQTPSSQAVSAGEKVTMSCKSSQSLLYSRDQSNYLAWYQQKPGQSPKLLIYLASTRESGVPDRFIGSGSGTDFTLTISSVQAEDLADYYCQQHYNYPLTFGSGTKLEIK | 37.7 | 0.000106 | 78900 | 0.00879 | 0.00635 | – | – | – | – | –
4 | GL1 PIMS (Fc fusion) EPKSSDKTHTCPPCPAPEAAGAPSVFLFPPKPKDTLMISRTPEVTCVVVDVSHEDPEVKFNWYVDGVEVHNAKTKPREEQYNSTYRVVSVLTVLHQDWLNGKAYACAVSNKALPAPIEKTISKAKGQPREPQVYTLPPSRDELTKNQVSLTCLVKGFYPSDIAVEWESNGQPENNYKTTPPVLDSDGSFFLYSKLTVDKSRWQQGNVFSCSVMHEALHNHYTQKSLSLSPGNSLFNQEVQIPLTESYSPNSEVQLVESAGGLVQPGRSLKLSCAASGFTFSDYYMAWVRQAPTKGLEWVATISHDGSSTYYRDSVKGRFTISRDNAKTILYLQMDSLRSEDTATYFCARQNIMDYWGQGVMVTVSSGGGGSGGGGSGGGGSGGGGSDIVMTQTPSSQAVSAGEKVTMSCKSSQSLLYSRDQSNYLAWYQQKPGQSPKLLIYLASTRESGVPDRFIGSGSGTDFTLTISSVQAEDLADYYCQQHYNYPLTFGSGTKLEIK | 78.3 | 0.000125 | 177000 | 0.0431 | 0.0977 | – | – | – | – | –
5 | (IL10 I87A::FUN1-21)-75 xceptor (Fc fusion) SPGQGTQSENSCTHFPGNLPNMLRDLRDAFSRVKTFFQMKDQLDNLLLKESLLEDFKGYLGCQALSEMIQFYLEEVMPQAENQDPDAKAHVNSLGENLKTLRLRLRRCHRFLPCENKSKAVEQVKNAFNKLQEKGIYKAMSEFDIFINYIEAYITMKIRNLEPKSSDKTHTCPPCPAPEAAGAPSVFLFPPKPKDTLMISRTPEVTCVVVDVSHEDPEVKFNWYVDGVEVHNAKTKPREEQYNSTYRVVSVLTVLHQDWLNGKAYACAVSNKALPAPIEKTISKAKGQPREPQVYTLPPSRDELTKNQVSLTCLVKGFYPSDIAVEWESNGQPENNYKTTPPVLDSDGSFFLYSKLTVDKSRWQQGNVFSCSVMHEALHNHYTQKSLSLSPGQRHNNSSLNTGTQMAGHSPNSQVQLVQSGAEVKKPGASVKVSCKASGYTFTDYNMNWVRQAPGQGLEWMGNIDPYYGGTSYNQKFKGRVTMTRDTSISTAYMELSRLRSDDTAVYYCARWDYRYDDGRAYYVMDFWGQGTTVTVSSGGGGSGGGGSGGGGSGGGGSDIVMTQSPDSLAVSLGERATINCKSSQSVLYSSNQKNYLAWYQQKPGQPPKLLIYWASTRESGVPDRFSGSGSGTDFTLTISSLQAEDVAVYYCHQYLYSWTFGQGTKLEIKR | – | – | – | – | – | 0.000433 | 40700 | 0.0198 | 0.0579 | 88.5
6 | (monoIL10-A2 hinge::FUN1-21)-75 xceptor (Fc fusion, also called monoIL10::FUN1-21) SPGQGTQSENSCTHFPGNLPNMLRDLRDAFSRVKTFFQMKDQLDNLLLKESLLEDFKGYLGCQALSEMIQFYLEEVMPQAENQDPDIKAHVNSLGENLKTLRLRLRRCHRFLPCENGGGSGGKSKAVEQVKNAFNKLQEKGIYKAMSEFDIFINYIEAYITMKIRNLEPPPPPCPPCPAPEAAGAPSVFLFPPKPKDTLMISRTPEVTCVVVDVSHEDPEVKFNWYVDGVEVHNAKTKPREEQYNSTYRVVSVLTVLHQDWLNGKAYACAVSNKALPAPIEKTISKAKGQPREPQVYTLPPSRDELTKNQVSLTCLVKGFYPSDIAVEWESNGQPENNYKTTPPVLDSDGSFFLYSKLTVDKSRWQQGNVFSCSVMHEALHNHYTQKSLSLSPGQRHNNSSLNTGTQMAGHSPNSQVQLVQSGAEVKKPGASVKVSCKASGYTFTDYNMNWVRQAPGQGLEWMGNIDPYYGGTSYNQKFKGRVTMTRDTSISTAYMELSRLRSDDTAVYYCARWDYRYDDGRAYYVMDFWGQGTTVTVSSGGGGSGGGGSGGGGSGGGGSDIVMTQSPDSLAVSLGERATINCKSSQSVLYSSNQKNYLAWYQQKPGQPPKLLIYWASTRESGVPDRFSGSGSGTDFTLTISSLQAEDVAVYYCHQYLYSWTFGQGTKLEIKR | – | – | – | – | – | 0.000344 | 12600 | 0.011 | 0.0111 | 178
7 | GL1 SMIP (Fc fusion, SMIP containing a single-chain GL1 antibody fragment) EVQLVESAGGLVQPGRSLKLSCAASGFTFSDYYMAWVRQAPTKGLEWVATISHDGSSTYYRDSVKGRFTISRDNAKTILYLQMDSLRSEDTATYFCARQNIMDYWGQGVMVTVSSGGGGSGGGGSGGGGSGGGGSDIVMTQTPSSQAVSAGEKVTMSCKSSQSLLYSRDQSNYLAWYQQKPGQSPKLLIYLASTRESGVPDRFIGSGSGTDFTLTISSVQAEDLADYYCQQHYNYPLTFGSGTKLEIKLEPKSSDKTHTCPPCPAPEAAGAPSVFLFPPKPKDTLMISRTPEVTCVVVDVSHEDPEVKFNWYVDGVEVHNAKTKPREEQYNSTYRVVSVLTVLHQDWLNGKAYACAVSNKALPAPIEKTISKAKGQPREPQVYTLPPSRDELTKNQVSLTCLVKGFYPSDIAVEWESNGQPENNYKTTPPVLDSDGSFFLYSKLTVDKSRWQQGNVFSCSVMHEALHNHYTQKSLSLSPG | 26.2 | 6.2e-05 | 118000 | 0.00964 | 0.0185 | – | – | – | – | –
